Measurements from PMC5861430 (Nucleic Acids Research, 2018).

T1: GST-APE2 (Xenopus laevis, UniProt Q6DDT4 1-517)
T1 sequence (looked up): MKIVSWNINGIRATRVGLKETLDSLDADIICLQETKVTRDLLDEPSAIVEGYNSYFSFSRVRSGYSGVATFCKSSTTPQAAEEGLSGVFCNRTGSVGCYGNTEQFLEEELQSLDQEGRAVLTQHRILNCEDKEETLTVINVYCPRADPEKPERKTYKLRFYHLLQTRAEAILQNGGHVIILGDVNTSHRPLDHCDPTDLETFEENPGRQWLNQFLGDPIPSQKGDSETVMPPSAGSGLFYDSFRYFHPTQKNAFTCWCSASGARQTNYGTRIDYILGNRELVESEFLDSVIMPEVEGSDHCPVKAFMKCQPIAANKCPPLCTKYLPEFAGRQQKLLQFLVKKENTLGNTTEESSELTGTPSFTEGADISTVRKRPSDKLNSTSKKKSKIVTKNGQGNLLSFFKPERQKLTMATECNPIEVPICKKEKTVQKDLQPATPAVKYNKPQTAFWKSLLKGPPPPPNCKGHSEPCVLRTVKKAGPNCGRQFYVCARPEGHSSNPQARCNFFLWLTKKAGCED

B1: WT His-tagged PCNA (natural protein, Xenopus laevis, UniProt P18248 1-261, looked up)
chain: MFEARLVQGSILKKVLEALKDLIDEACWDITSSGISLQSMDSSHVSLVQLTLRSDGFDTYRCDRNQSIGVKMSSMSKILKCAASDDIITLRAEDNADTVTMVFESPNQEKVSDYEMKLMDLDVEQLGIPEQEYSCVIKMPSGEFARICRDLSQIGDAVVISCAKDGVKFSASGELGTGNVKLSQTSNVDKEEEAVTIEMNEPVQLTFALRYLNFFTKATPLSPTVILSMSADIPLVVEYKIADMEHVKYYLAPKIEDEEAS
B2: GST-APE2-ZF (domain or fragment, Xenopus laevis, UniProt Q6DDT4 456-517, looked up)
chain: GPPPPPNCKGHSEPCVLRTVKKAGPNCGRQFYVCARPEGHSSNPQARCNFFLWLTKKAGCED

Columns and labels:
Assay in all cases: pull-down
GST-APE2 = target: T1, GST-APE2
[1] = target: PK PCNA (P253A-K254A PCNA) (Xenopus laevis, UniProt P18248 1-261, P253A | K254A)
WT His-tagged PCNA = target: B1

binding result (GST-APE2)	binding result [1]	binding result (WT His-tagged PCNA)	Binder
binds			B1
	binds	binds	B2
